# Data published in the supplement of paper PMC10724198.
# ± gives the standard deviation of the averaged measurements.
# Tested on: Saccharomyces cerevisiae
# Test: protein stability index of tFT-peptide fusion (C-terminal peptide) (PSI (0-1 scale)); higher = more stable (slower turnover)
# Settings: temperature: 30 C
# Method: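 MPS profiling in S. cerevisiae of the yeast C-terminome library: the last 12 aa of each annotated ORF are fused to the C-terminus of a sfGFP-mCherry timer, after a GGGS linker. Cells are FACS-sorted into 8 mCherry/sfGFP bins and deep-sequenced. PSI runs from 0 (unstable) to 1 (stable); wild type and das1Δ backgrounds, two technical replicates each.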
# [1] = genetic background: das1 deletion
Sequence,protein stability index [1],protein stability index (genetic background: wild type)
IRCVFMFRTNAK [YLR296W C-terminal 12 aa],0.578 ± 0.03,0.595 ± 0.018
VMGQFLPIFEMD [GSM1 C-terminal 12 aa],0.724 ± 0.031,0.713 ± 0.0046
YRIIDCVIAQLP [NVJ3 C-terminal 12 aa],0.669 ± 0.045,0.655 ± 0.046
ILTQGGHIIKKK [MNL2 C-terminal 12 aa],0.715 ± 0.017,0.6938 ± 0.0012
QARKSKSVSFYA [RPT5 C-terminal 12 aa],0.693 ± 0.016,0.692 ± 0.027
ALKKEYEAKKKA [COA3 C-terminal 12 aa],0.6861 ± 0.0068,0.664 ± 0.0072
GELFQIVSNQSS [STE6 C-terminal 12 aa],0.702 ± 0.017,0.679 ± 0.0082
ETMVRIRVDGNE [DAD2 C-terminal 12 aa],0.665 ± 0.027,0.676 ± 0.025
SVYQPFFALCGL [YDR355C C-terminal 12 aa],0.6756 ± 0.0066,0.645 ± 0.017
VTEAESTASAST [BUD20 C-terminal 12 aa],0.7 ± 0.013,0.6926 ± 0.006
SKGAQKRKNAKK [SHR3 C-terminal 12 aa],0.682 ± 0.009,0.66 ± 0.022
SLVKTHNSSLCK [IAI11 C-terminal 12 aa],0.663 ± 0.026,0.689 ± 0.095
GSNAEEDDDLYS [CDC48 C-terminal 12 aa],0.7027 ± 0.0045,0.653 ± 0.03
LKSATESFVATF [ATP1 C-terminal 12 aa],0.701 ± 0.0097,0.694 ± 0.014
FIEALAKSVNEL [UGA1 C-terminal 12 aa],0.7371 ± 0.0042,0.689 ± 0.054
DEFWTDLFMNDI [WAR1 C-terminal 12 aa],0.77 ± 0.0079,0.757 ± 0.036
HTRQGNITQTKY [YKL100W-A C-terminal 12 aa],0.698 ± 0.017,0.692 ± 0.043
RCNVYIIRCIHH [YOL164W-A C-terminal 12 aa],0.5183 ± 0.00055,0.51 ± 0.037
LTQVEKPRGIFD [DDC1 C-terminal 12 aa],0.71 ± 0.023,0.674 ± 0.013
ENWIHVSCLSFM [LIN1 C-terminal 12 aa],0.6634 ± 0.0048,0.6503 ± 0.0039
SSWISKHSSVTD [YDL109C C-terminal 12 aa],0.696 ± 0.0068,0.6859 ± 0.002

Sequence,protein stability index [1],protein stability index (genetic background: wild type)
RIPKELTGTVRF [GAT4 C-terminal 12 aa],0.705 ± 0.018,0.672 ± 0.014
AVGIQSSESLLM [YMR175W-A C-terminal 12 aa],0.688 ± 0.012,0.715 ± 0.031
QDNSEVVDLTSD [NFI1 C-terminal 12 aa],0.694 ± 0.012,0.6728 ± 0.006
RELFGVGTPQKL [TEA1 C-terminal 12 aa],0.7173 ± 0.0037,0.728 ± 0.023
IKIFSERCDGKV [JJJ2 C-terminal 12 aa],0.7066 ± 0.002,0.683 ± 0.0069
YQCSETSTPRNT [GIC1 C-terminal 12 aa],0.723 ± 0.025,0.675 ± 0.012
LVEGQTFDADVE [EGD1 C-terminal 12 aa],0.69111 ± 4.7e-05,0.671 ± 0.033
PEAEGPTVEEVD [SSA1 C-terminal 12 aa],0.703 ± 0.02,0.694 ± 0.019
RLDRHFEKKKKV [RDS3 C-terminal 12 aa],0.704 ± 0.023,0.7 ± 0.021
RPDSTAPSNENQ [PEP1 C-terminal 12 aa],0.7262 ± 0.00093,0.7245 ± 0.0041
NNNMESFPEMSP [GLE1 C-terminal 12 aa],0.726 ± 0.013,0.72 ± 0.017
IERLFKEEEYYS [TCD1 C-terminal 12 aa],0.70198 ± 0.00056,0.703 ± 0.011
ACIFNVATASIP [YGR270C-A C-terminal 12 aa],0.719 ± 0.036,0.692 ± 0.03
VSLLLNSLALFF [YGL204C C-terminal 12 aa],0.688 ± 0.021,0.6623 ± 0.0058
GSLLLYLLLKIL [INP54 C-terminal 12 aa],0.34 ± 0.018,0.119 ± 0.0017
IVCGDGSIHWFQ [FAU1 C-terminal 12 aa],0.735 ± 0.0094,0.769 ± 0.041
ERDTTTKPSKRR [KEL3 C-terminal 12 aa],0.7092 ± 0.0049,0.698 ± 0.013
DDCLIELPNGNI [RRN9 C-terminal 12 aa],0.6888 ± 0.0021,0.703 ± 0.041
SGGVLDSGDVSL [YGR182C C-terminal 12 aa],0.684 ± 0.022,0.661 ± 0.029
TGNGPNLDNLKY [ARA1 C-terminal 12 aa],0.722 ± 0.0074,0.641 ± 0.019
IKNRLNGLKYRL [YML020W C-terminal 12 aa],0.751 ± 0.0083,0.6784 ± 0.0056

Sequence,protein stability index [1],protein stability index (genetic background: wild type)
LYDNIRSGNFGI [MSB1 C-terminal 12 aa],0.771 ± 0.008,0.6503 ± 0.00092
SHAALGNETNSL [YHR052C-B C-terminal 12 aa],0.6826 ± 0.0062,0.684 ± 0.034
LCGAPNCKGFLN [SET1 C-terminal 12 aa],0.677 ± 0.026,0.671 ± 0.036
GKKLKKIFGRKK [SEG1 C-terminal 12 aa],0.719 ± 0.006,0.6627 ± 0.0025
SDDDDYDEVANQ [UBC8 C-terminal 12 aa],0.689 ± 0.031,0.664 ± 0.015
DGPKFTFKRRKG [XRS2 C-terminal 12 aa],0.713 ± 0.027,0.778 ± 0.041
FAKLAAIPCSNA [YMR265C C-terminal 12 aa],0.553 ± 0.0059,0.5659 ± 0.0046
AHYNNGLQWFSD [EMC4 C-terminal 12 aa],0.7084 ± 0.0065,0.728 ± 0.014
LKQTVESLIKEL [VPS51 C-terminal 12 aa],0.66 ± 0.0088,0.711 ± 0.072
EIALRKSGAVGS [YMR008C-A C-terminal 12 aa],0.689 ± 0.008,0.6727 ± 0.0038
LRRGEPDNKVNR [SPG4 C-terminal 12 aa],0.71 ± 0.019,0.708 ± 0.012
EEEKRHGINLKC [GUP2 C-terminal 12 aa],0.6905 ± 0.004,0.687 ± 0.045
VVPAVLFAFLLV [YDL118W C-terminal 12 aa],0.446 ± 0.0098,0.4 ± 0.0053
QKYQVYKNFETL [UTR4 C-terminal 12 aa],0.7 ± 0.015,0.688 ± 0.0077
LLFGDEVVACKD [YDL172C C-terminal 12 aa],0.722 ± 0.017,0.691 ± 0.011
ALGEHYNSLHDS [OTU2 C-terminal 12 aa],0.7 ± 0.016,0.653 ± 0.0071
RNSPSYTGDHKT [YOR072W-A C-terminal 12 aa],0.722 ± 0.02,0.6928 ± 0.0067
KSLFSIIDDLQS [MSH6 C-terminal 12 aa],0.731 ± 0.0073,0.727 ± 0.021
VLIKHDHTNTHI [MMT1 C-terminal 12 aa],0.703 ± 0.028,0.701 ± 0.034
LFDARFERKNPH [SRB8 C-terminal 12 aa],0.737 ± 0.025,0.7112 ± 0.0032
ERWVRMGELMHY [YBR184W C-terminal 12 aa],0.686 ± 0.018,0.538 ± 0.058

Sequence,protein stability index [1],protein stability index (genetic background: wild type)
PLLELVMELRDR [MOB1 C-terminal 12 aa],0.726 ± 0.051,0.736 ± 0.01
DFFREVKYGKKQ [ODC1 C-terminal 12 aa],0.7097 ± 0.0027,0.72329 ± 0.00028
TYSEREGNLLNS [RPR2 C-terminal 12 aa],0.7159 ± 0.0046,0.675 ± 0.0073
LIVSYCASVAFG [ATG12 C-terminal 12 aa],0.366 ± 0.013,0.382 ± 0.0029
LLKKLKVVFGIE [FUN12 C-terminal 12 aa],0.703 ± 0.014,0.68523 ± 0.0002
AGSRRLDFRFYH [YOL162W C-terminal 12 aa],0.678 ± 0.064,0.6607 ± 0.0057
TFQKAQVEAEWV [TOA1 C-terminal 12 aa],0.70901 ± 0.00064,0.692 ± 0.027
AKLFKEIFAYKV [COQ8 C-terminal 12 aa],0.664 ± 0.0097,0.66 ± 0.019
VKDLYKRLTIQA [GPI1 C-terminal 12 aa],0.518 ± 0.018,0.0975 ± 0.0091
IAEIASAVDKYS [MHT1 C-terminal 12 aa],0.7183 ± 0.0018,0.726 ± 0.047
ERPIVASTSPIA [TPH3 C-terminal 12 aa],0.71247 ± 4.2e-05,0.681 ± 0.0089
EDHRDISGKDVN [UBP1 C-terminal 12 aa],0.68575 ± 0.0005,0.687 ± 0.033
GEEKKHLKMASP [MDE1 C-terminal 12 aa],0.6905 ± 0.0062,0.704 ± 0.035
DIMVFEISNCRV [HIS1 C-terminal 12 aa],0.6816 ± 0.0057,0.73 ± 0.052
AKWSISHKSNTG [YIL066W-A C-terminal 12 aa],0.694 ± 0.0059,0.69 ± 0.037
QLHLVLTLRGGN [RUB1 C-terminal 12 aa],0.683 ± 0.011,0.74 ± 0.053
DATLYLGRFLPH [PEF1 C-terminal 12 aa],0.70773 ± 2.5e-05,0.667 ± 0.01
NIGDFSPDLMDS [MSS11 C-terminal 12 aa],0.684 ± 0.011,0.713 ± 0.0096
AKSLIHLFTSNQ [NRM1 C-terminal 12 aa],0.694 ± 0.042,0.7334 ± 0.0027
